Here are results for four substances from patent publication EP0835662A2.

Assay [1] has as its target receptor with a moderately high affinity for Substance P on primary tumor cells of human colon adenocarcinoma (human). Briefly: 125I-Substance P receptor-ligand assay on cells, Scatchard (LIGAND); culture PTC-1.
Assay [2] shares this target. Briefly: 125I-Substance P receptor-ligand assay on cells, Scatchard (LIGAND); culture PTC-2.
The target is the same in assay [3]. Briefly: 125I-Substance P receptor-ligand assay on cells, Scatchard (LIGAND); culture PTC-3.
Assay [4] has the same target. Briefly: 125I-Substance P receptor-ligand assay on cells, Scatchard (LIGAND); culture PTC-4.
Assay [5] shares this target. Briefly: 125I-Substance P receptor-ligand assay on cells, Scatchard (LIGAND); culture PTC-5.
Assay [6] has the same target. Briefly: 125I-Substance P receptor-ligand assay on cells, Scatchard (LIGAND); culture PTC-6.
The target is the same in assay [7]. Put plainly: 125I-Substance P receptor-ligand assay on cells, Scatchard (LIGAND); culture PTC-7.
Assay [8] shares this target. Put plainly: 125I-Substance P receptor-ligand assay on cells, Scatchard (LIGAND); culture PTC-8.
For assay [9], the target named is high-affinity receptor for VIP on primary tumor cells of human colon adenocarcinoma (human). Briefly: 125I-VIP receptor-ligand assay on cells, Scatchard (LIGAND); culture PTC-1.
In assay [10] the target is receptor with a moderately high affinity for VIP on primary tumor cells of human colon adenocarcinoma (human). The description is as above.
In assay [11] the target is high-affinity receptor for VIP on primary tumor cells of human colon adenocarcinoma (human). Put plainly: 125I-VIP receptor-ligand assay on cells, Scatchard (LIGAND); culture PTC-2.
Assay [12] has as its target receptor with a moderately high affinity for VIP on primary tumor cells of human colon adenocarcinoma (human). The assay is described as above.
Assay [13] has as its target high-affinity receptor for VIP on primary tumor cells of human colon adenocarcinoma (human). Briefly: 125I-VIP receptor-ligand assay on cells, Scatchard (LIGAND); culture PTC-3.
Assay [14] has as its target receptor with a moderately high affinity for VIP on primary tumor cells of human colon adenocarcinoma (human). The assay is described as above.
For assay [15], the target named is high-affinity receptor for VIP on primary tumor cells of human colon adenocarcinoma (human). Briefly: 125I-VIP receptor-ligand assay on cells, Scatchard (LIGAND); culture PTC-4.
Assay [16] has as its target receptor with a moderately high affinity for VIP on primary tumor cells of human colon adenocarcinoma (human). Described as above.
Assay [17] concerns the target high-affinity receptor for VIP on primary tumor cells of human colon adenocarcinoma (human). Put plainly: 125I-VIP receptor-ligand assay on cells, Scatchard (LIGAND); culture PTC-5.
The target of assay [18] is receptor with a moderately high affinity for VIP on primary tumor cells of human colon adenocarcinoma (human). Described as above.
The target in assay [19] is high-affinity receptor for VIP on primary tumor cells of human colon adenocarcinoma (human). Briefly: 125I-VIP receptor-ligand assay on cells, Scatchard (LIGAND); culture PTC-6.
The target of assay [20] is receptor with a moderately high affinity for VIP on primary tumor cells of human colon adenocarcinoma (human). The assay is described as above.
Assay [21] addresses high-affinity receptor for VIP on primary tumor cells of human colon adenocarcinoma (human). Put plainly: 125I-VIP receptor-ligand assay on cells, Scatchard (LIGAND); culture PTC-7.
In assay [22] the target is receptor with a moderately high affinity for VIP on primary tumor cells of human colon adenocarcinoma (human). The description is as above.
For assay [23], the target named is high-affinity receptor for VIP on primary tumor cells of human colon adenocarcinoma (human). Put plainly: 125I-VIP receptor-ligand assay on cells, Scatchard (LIGAND); culture PTC-8.
For assay [24], the target named is receptor with a moderately high affinity for VIP on primary tumor cells of human colon adenocarcinoma (human). The description is as above.
The target of assay [25] is high-affinity receptor for somatostatin on primary tumor cells of human colon adenocarcinoma (human). Put plainly: 125I-somatostatin receptor-ligand assay on cells, Scatchard (LIGAND); culture PTC-1.
The target in assay [26] is receptor with a moderately high affinity for somatostatin on primary tumor cells of human colon adenocarcinoma (human). Described as above.
In assay [27] the target is high-affinity receptor for somatostatin on primary tumor cells of human colon adenocarcinoma (human). Put plainly: 125I-somatostatin receptor-ligand assay on cells, Scatchard (LIGAND); culture PTC-2.
The target of assay [28] is receptor with a moderately high affinity for somatostatin on primary tumor cells of human colon adenocarcinoma (human). The assay is described as above.
Assay [29] concerns the target high-affinity receptor for somatostatin on primary tumor cells of human colon adenocarcinoma (human). Put plainly: 125I-somatostatin receptor-ligand assay on cells, Scatchard (LIGAND); culture PTC-3.
In assay [30] the target is receptor with a moderately high affinity for somatostatin on primary tumor cells of human colon adenocarcinoma (human). The description is as above.
The target of assay [31] is high-affinity receptor for somatostatin on primary tumor cells of human colon adenocarcinoma (human). Briefly: 125I-somatostatin receptor-ligand assay on cells, Scatchard (LIGAND); culture PTC-4.
Assay [32] concerns the target receptor with a moderately high affinity for somatostatin on primary tumor cells of human colon adenocarcinoma (human). The description is as above.
Assay [33] concerns the target high-affinity receptor for somatostatin on primary tumor cells of human colon adenocarcinoma (human). Put plainly: 125I-somatostatin receptor-ligand assay on cells, Scatchard (LIGAND); culture PTC-5.
The target of assay [34] is receptor with a moderately high affinity for somatostatin on primary tumor cells of human colon adenocarcinoma (human). The description is as above.
In assay [35] the target is high-affinity receptor for somatostatin on primary tumor cells of human colon adenocarcinoma (human). Put plainly: 125I-somatostatin receptor-ligand assay on cells, Scatchard (LIGAND); culture PTC-6.
Assay [36] has as its target receptor with a moderately high affinity for somatostatin on primary tumor cells of human colon adenocarcinoma (human). The assay is described as above.
For assay [37], the target named is high-affinity receptor for somatostatin on primary tumor cells of human colon adenocarcinoma (human). Briefly: 125I-somatostatin receptor-ligand assay on cells, Scatchard (LIGAND); culture PTC-7.
In assay [38] the target is receptor with a moderately high affinity for somatostatin on primary tumor cells of human colon adenocarcinoma (human). The assay is described as above.
Assay [39] has as its target high-affinity receptor for somatostatin on primary tumor cells of human colon adenocarcinoma (human). Briefly: 125I-somatostatin receptor-ligand assay on cells, Scatchard (LIGAND); culture PTC-8.
In assay [40] the target is receptor with a moderately high affinity for somatostatin on primary tumor cells of human colon adenocarcinoma (human). The description is as above.
Assay [41] deals with high-affinity receptor for bombesin on primary tumor cells of human colon adenocarcinoma (human). Briefly: 125I-bombesin receptor-ligand assay on cells, Scatchard (LIGAND); culture PTC-1.
For assay [42] the target is unchanged. Put plainly: 125I-bombesin receptor-ligand assay on cells, Scatchard (LIGAND); culture PTC-2.
For assay [43] the target is unchanged. Put plainly: 125I-bombesin receptor-ligand assay on cells, Scatchard (LIGAND); culture PTC-3.
The target is the same in assay [44]. Put plainly: 125I-bombesin receptor-ligand assay on cells, Scatchard (LIGAND); culture PTC-4.
Assay [45] has the same target. Put plainly: 125I-bombesin receptor-ligand assay on cells, Scatchard (LIGAND); culture PTC-5.
For assay [46] the target is unchanged. Briefly: 125I-bombesin receptor-ligand assay on cells, Scatchard (LIGAND); culture PTC-6.
For assay [47] the target is unchanged. Put plainly: 125I-bombesin receptor-ligand assay on cells, Scatchard (LIGAND); culture PTC-7.
Assay [48] shares this target. Briefly: 125I-bombesin receptor-ligand assay on cells, Scatchard (LIGAND); culture PTC-8.

What is called Kd is the concentration at which binding is half-saturated. Low readings indicate tighter binding, high ones weaker binding. Turning to “Substance P (from UniProt P20366 58-68) (peptide)”, the Kd in assay [1] was found to be 154 nM; in assay [2], 172 nM; in assay [3], 134 nM; in assay [4] it was 154 nM; in [5] it was 21 nM; in assay [6], 234 nM. For the same substance, the equilibrium dissociation constant (Kd) in assay [7] amounted to 26.2 nM; in [8] it was 186 nM. The R(M/L) receptor number was found to be 1.85e-08 M/L in [1]; 1.71e-08 M/L in [2]; 1.49e-08 M/L in [3]; 1.66e-08 M/L in assay [4]; 6.2e-09 M/L in [5]; 2.95e-08 M/L in [6]. In addition, the R(M/L) receptor number in [7] is 7.48e-09 M/L; in assay [8], 1.32e-08 M/L.

Turning to “vasoactive intestinal peptide (VIP) (from UniProt P01282 125-152)”, the Kd in assay [9] is 1.04 nM; in assay [10], 633 nM; in [11], 1.45 nM; in assay [12] it was 423 nM; in [13] it was 6.35 nM; in [14], 1510 nM. The Kd in assay [15] stood at 11 nM; in assay [16] it was 945 nM; in assay [17], 19.5 nM; in assay [18], 3510 nM; in assay [19], 4.41 nM; in assay [20], 1880 nM. The Kd in assay [21] came to 1.49 nM; in assay [22] it was 555 nM; in assay [23], 1.78 nM; in assay [24], 8420 nM. Also, the R(M/L) receptor number in [9] was found to be 4.83e-11 M/L; in assay [10], 1.78e-08 M/L; in assay [11], 6.23e-11 M/L; in assay [12], 1.03e-08 M/L; in assay [13] it was 2.45e-10 M/L; in assay [14] it was 2.93e-08 M/L. In addition, the R(M/L) receptor number turned out to be 2.75e-10 M/L in assay [15]; 5.03e-08 M/L in [16]; 5.29e-10 M/L in assay [17]; 8.72e-08 M/L in assay [18]; 1.05e-10 M/L in assay [19]; 3.21e-08 M/L in [20]. Also, the R(M/L) receptor number in [21] worked out at 6.12e-11 M/L; in assay [22], 9.37e-09 M/L; in assay [23] it was 1.5e-10 M/L; in [24], 8.49e-09 M/L.

Consider “somatostatin (from UniProt P61278 103-116) (peptide)”, for which the Kd in [25] worked out at 0.323 nM; in [26], 93.7 nM; in [27], 0.17 nM; in assay [28], 63.5 nM; in assay [29], 1.15 nM; in [30], 134 nM. Also, the Kd in assay [31] came to 0.0865 nM; in assay [32] it was 56.4 nM; in [33], 0.378 nM; in [34], 15.4 nM; in [35], 0.545 nM; in [37], 1.11 nM. The Kd was found to be 128 nM in assay [38], 0.964 nM in assay [39] and 99.2 nM in assay [40]. In addition, the R(M/L) receptor number came out at 6.01e-11 M/L in assay [25]; 4.41e-09 M/L in [26]; 8.99e-11 M/L in [27]; 2.24e-09 M/L in assay [28]; 1.06e-10 M/L in assay [29]; 5.09e-09 M/L in assay [30]. In addition, the R(M/L) receptor number turned out to be 4.66e-11 M/L in assay [31]; 2.75e-09 M/L in [32]; 5.82e-11 M/L in assay [33]; 1.24e-09 M/L in assay [34]; 6.85e-11 M/L in [35]; 1.16e-09 M/L in assay [36]. The R(M/L) receptor number was found to be 9.81e-11 M/L in assay [37], 3.89e-09 M/L in [38], 1.74e-10 M/L in assay [39] and 6.59e-09 M/L in assay [40].

As for bombesin (peptide), the Kd in [41] was 0.439 nM; in assay [42] it was 0.593 nM; in [43] it was 0.569 nM; in [44] it was 0.568 nM; in assay [45], 0.462 nM; in assay [46], 0.485 nM. Further, the values for the Kd in assay [47] and in assay [48] were 0.67 nM and 0.883 nM, respectively. Also, the R(M/L) receptor number in assay [41] stood at 2.24e-10 M/L; in [42], 3.22e-10 M/L; in assay [43] it was 2.97e-10 M/L; in assay [44] it was 2.89e-10 M/L; in assay [45], 3.35e-10 M/L; in assay [46], 2.24e-10 M/L. The R(M/L) receptor number amounted to 2.55e-10 M/L in assay [47] and 2.85e-10 M/L in assay [48].
